{"source": "patent US20230212239A1", "about": "“INHIBITORS OF CBL AUTOINHIBITION AND RELATED METHODS” (THE HOSPITAL FOR SICK CHILDREN, priority 2020, published 2023)", "molecules": {"B1": {"name": "pSLAP2: tyrosine phosphorylated SLAP2 expressed in TKB1 cells (protein, UniProt Q9H6Q3 2-261, looked up)", "Src-like-adapter 2": "GSLPSRRKSLPSPSLSSSVQGQGPVTMEAERSKATAVALGSFPAGGPAELSLRLGEPLTIVSEDGDWWTVLSEVSGREYNIPSVHVAKVSHGWLYEGLSREKAEELLLLPGNPGGAFLIRESQTRRGSYSLSVRLSRPASWDRIRHYRIHCLDNGWLYISPRLTFPSLQALVDHYSELADDICCLLKEPCVLQRAGPLPGKDIPLPVTVQRTPLNWKELDSSLLFSEAATGEESLLSEGLRESLSFYISLNDEAVSLDDA", "modifications": "tyrosine phosphorylated", "notes": "tyrosine phosphorylated SLAP2 expressed in TKB1 cells"}}, "target": "T1, CBL G306E (Homo sapiens, UniProt P22681, G306E)", "T1 construct": "Residues 25-357 and 2-436 of CBL were cloned in frame into pGEX4T-1; GST (N, cleaved yes); made in house; host or cells: E. coli BL-21", "T1 sequence (P22681 2-436 G306E)": "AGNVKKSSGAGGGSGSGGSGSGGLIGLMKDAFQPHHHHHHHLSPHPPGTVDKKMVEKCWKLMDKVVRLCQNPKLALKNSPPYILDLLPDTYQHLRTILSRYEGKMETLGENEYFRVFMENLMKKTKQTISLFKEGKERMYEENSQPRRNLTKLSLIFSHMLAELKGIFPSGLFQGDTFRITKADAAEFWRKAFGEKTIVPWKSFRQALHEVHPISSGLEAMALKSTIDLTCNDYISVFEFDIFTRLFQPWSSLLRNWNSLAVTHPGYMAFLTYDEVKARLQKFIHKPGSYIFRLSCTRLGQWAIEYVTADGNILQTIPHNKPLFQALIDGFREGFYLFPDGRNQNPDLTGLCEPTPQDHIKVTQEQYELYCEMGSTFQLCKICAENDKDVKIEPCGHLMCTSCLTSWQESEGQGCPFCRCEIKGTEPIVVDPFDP", "experiment": "In vitro ubiquitination assays with CBL mutant G306E", "format": "biochemical", "conditions": "CBL mutant that abolishes phospho-tyrosine binding", "description": "Thus, we tested whether the ability of SLAP2 to promote CBL ubiquitination activity is influenced by canonical TKBD-phospho-tyrosine interactions.\nIn vitro ubiquitination reactions were prepared with 20 pmol of CBL or pCBL and 60 pmol of hSLAP2 or phosphorylated hSLAP2 (pSLAP2) for both WT and mutants. Reagents were thawed and reactions prepared on ice. […]\nUbiquitination reactions were set up as above (25 µL total volume) in triplicate and diluted with reaction buffer after completion (1:40 for pCBL, 1:15 for all other reactions). […] Wells were washed four times with PBS-T and 25 µL of prepared Immobilon Western Chemiluminescent HRP Substrate (Millipore #P90719) added to each well immediately prior to the plate being read on a Synergy Neo2 Plate Reader (BioTek Instruments). […] Standard deviation of the reaction averages was calculated and used as a measure of error. Each reaction set was analyzed at least twice with fresh protein purifications.", "data": [{"molecule": "B1", "values": [{"measurement": "CBL G306E ubiquitination activity", "result": "stimulated CBL G306E ubiquitination activity"}]}]}
